Results published in patent US11473089B2, “Aptamer for ADAMTS5 and use for aptamer for ADAMTS5” (RIBOMIC INC., priority 2017, dated 2022).

T1: ADAMTS5 (Homo sapiens, UniProt Q9UNA0)
T1 construct: purchased R&D systems
T1 sequence (Q9UNA0 262-930): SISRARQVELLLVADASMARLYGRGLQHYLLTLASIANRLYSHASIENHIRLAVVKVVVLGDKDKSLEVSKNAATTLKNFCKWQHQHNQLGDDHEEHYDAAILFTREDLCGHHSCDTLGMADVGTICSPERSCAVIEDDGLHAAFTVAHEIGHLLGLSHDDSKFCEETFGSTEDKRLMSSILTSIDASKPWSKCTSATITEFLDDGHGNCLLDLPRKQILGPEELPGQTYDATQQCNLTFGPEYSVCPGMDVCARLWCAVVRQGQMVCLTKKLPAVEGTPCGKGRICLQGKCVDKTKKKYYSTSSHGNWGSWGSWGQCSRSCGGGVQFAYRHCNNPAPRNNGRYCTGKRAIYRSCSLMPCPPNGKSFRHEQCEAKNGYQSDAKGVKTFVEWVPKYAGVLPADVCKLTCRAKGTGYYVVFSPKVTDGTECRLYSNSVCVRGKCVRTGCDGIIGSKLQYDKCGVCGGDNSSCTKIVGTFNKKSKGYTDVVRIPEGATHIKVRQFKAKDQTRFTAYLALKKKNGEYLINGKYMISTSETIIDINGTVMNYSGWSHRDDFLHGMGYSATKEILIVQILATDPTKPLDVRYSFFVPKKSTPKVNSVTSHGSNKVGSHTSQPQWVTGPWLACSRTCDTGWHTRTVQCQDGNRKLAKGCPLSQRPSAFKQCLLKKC


Columns and labels:
[1] = target: T1, ADAMTS5; assay: binding activity to ADAMTS5 by surface plasmon resonance (Biacore T100); conditions: Table 7
Protocol: The binding activity of aptamers having the nucleotide sequences shown in SEQ ID NOs: 1 and 2 to ADAMTS5 was evaluated by the surface plasmon resonance method. Biacore T100 manufactured by GE Healthcare was used for the measurement. The SA chip was used as the sensor chip, which had streptavidin immobilized thereon. About 800 RU of a 16-nucleotide Poly dT with biotin at the 5′-terminal was bound on the chip. […] ADAMTS5 for analyte was prepared at 0.1 μM, and injected at a flow rate of 30 μL/min for 60 sec. As the running buffer, solution C was used. The solution C is a mixed solution of 300 mM sodium chloride, 5.4 mM potassium chloride, 1.8 mM calcium chloride, 0.8 mM magnesium chloride, 20 mM tris (pH 7.6), and 0.05% Tween20.
SEQ ID NO: 2 has a sequence with one base deletion from the continuous 4 G bases in the consensus sequence, and it was shown from the measurement results of the binding activity that the continuous 4 G bases in the consensus sequence are important for the activity of aptamers. Sensorgram showing the binding of an aptamer having the nucleotide sequence shown in SEQ ID NO: 1 to ADAMTS5 is presented in FIG. 2. In Table 1, “++” indicates those with the proportion of ADAMTS5 binding amount (RU value) to the amount of aptamer immobilized on the SA chip (RU value) of not less than 40%, “+” indicates those with the proportion of not less than 10% and less than 40%, and “−” indicates those with the proportion of less than 10%.
The binding activity and enzyme inhibitory activity of aptamers having nucleotide sequences shown in SEQ ID NOs: 16-25 to ADAMTS5 were measured. The binding activity was evaluated by the surface plasmon resonance method. For the measurement, a method similar to that in Example 1 was used. The enzyme inhibitory activity was measured by a method similar to that in Example 1. […] The negative control nucleic acid refers to the nucleic acid pool used in the first round of the SELEX method. The “++” indicates those with the proportion of ADAMTS5 binding amount (RU value) to the amount of aptamer immobilized on the SA chip (RU value) of not less than 40%, and “+” indicates those with the proportion of less than 40%. […] “n.d.” means not determined.
The binding activity of the nucleic acids shown in SEQ ID NOs: 30-45 to ADAMTS5 was measured. The binding activity was evaluated by the surface plasmon resonance method. In the Table, “++” indicates those with the proportion of ADAMTS5 binding amount (RU value) to the amount of aptamer immobilized on the SA chip (RU value) of not less than 40%, “+” indicates those with the proportion of not less than 10% and less than 40%, and “−” indicates those with the proportion of less than 10%.

[2] = target: T1, ADAMTS5; assay: ADAMTS5 enzyme inhibition, aggrecan G1-IGD-G2 cleavage, SDS-PAGE detection (evaluation method 1); format: biochemical
Protocol: Whether an aptamer having the nucleotide sequence shown in SEQ ID NO: 1 inhibits the enzyme activity of ADAMTS5 was evaluated by the following method. As a substrate of ADAMTS5, the G1-IGD-G2 domain of aggrecan (manufactured by R&D systems) was used. ADAMTS5 specifically cleaves in between the 392nd glutamic acid and the 393rd alanine in the G1-IGD-G2 domain and produces two fragments. These fragments have faster electrophoretic mobility than uncleaved G1-IGD-G2. Thus, the enzyme activity of ADAMTS5 can be measured by quantifying the band intensity of G1-IGD-G2 by SDS-PAGE electrophoresis. The assay was performed in a solution A buffer with a reaction mixture volume of 10 μL. First, a mixture (10 μL) of a nucleic acid and ADAMTS5 was prepared and incubated at 25° C. for 15 min. To a substrate solution (5 μL) diluted with solution A was added a mixture (5 μL) of the nucleic acid and ADAMTS5 to start the enzyme reaction. The final concentration of ADAMTS5 in the reaction solution was 5 nM, and the final substrate concentration was 50 μg/mL. The reaction solution was incubated at 37° C. for 2 hr, 2 μL of solution D was added, and the mixture was heated at 95° C. for 2 min to stop the enzyme reaction of ADAMTS5. Solution D contains 0.25 M tris (pH 6.8), 10% SDS, 50% glycerol, 0.25% bromo phenolblue, and 20% 2-mercaptoethanol. The heat-treated reaction solution was electrophoresed by 7.5% SDS-PAGE and stained with SYPRO Orange (manufactured by Sigma-Aldrich). The staining was performed according to the manual of Sigma-Aldrich and detected using STORM840 manufactured by GE Healthcare. For analytical curves, uncleaved substrates 1000 ng, 400 ng, 160 ng, 64 ng, 25.6 ng, 10.24 ng, and 4.1 ng were electrophoresed, and staining and detection were performed in the same manner. The amount of uncleaved substrate in each reaction solution was quantified from the band intensity and the standard curve. The substrate cleavage efficiency of ADAMTS5 under these reaction conditions was 80-100%. The inhibition rate of the test substance was calculated using the following equation. inhibition rate (%)=(Sapt−SE)/(S0−SE)×100 wherein Sapt is the amount of an uncleaved substrate with the addition of a test substance, SE is the residual amount of an uncleaved substrate with the addition of ADAMTS5, and S0 is the residual amount of an uncleaved substrate without the addition of ADAMTS5.
The concentration of an inhibitor necessary for inhibiting 50% of the enzyme activity (IC50) was determined. IC50 is a mean of four measurements.

Molecule | binding activity [1] | inhibitory activity % 10 nM aptamer ([2]; Table 7) [%] | inhibitory activity % 30 nM aptamer ([2]; Table 7) [%] | inhibitory activity % 30 nM aptamer ([2]; Table 8) [%] | inhibitory activity % 20 nM aptamer ([2]; Table 7, 20 nM aptamer) [%]
19 (nucleic acid, aptamer; 2'-fluoro at CU, RNA at AG, backbone not given here) GGGACAUGCGUAACUUGAUAGGGGCCUCCACAGCUGAUAAGCUUGGACUCAAACCAUCAAGUCCAGAUCGAGCA | + (proportion of less than 40%) | 2.9 | 93.5 | – | –
20 (nucleic acid, aptamer; 2'-fluoro at CU, RNA at AG, backbone not given here) GGGACAUGCGUAACUGUAUAGGGGCCUCCGCAGCUAUUCAGCUCGGACAUAAACCAUACAGUCCAGAUCGAGCA | + (proportion of less than 40%) | 15.5 | 111.1 | – | –
21 (nucleic acid, 2'-fluoro at CU, RNA at AG, backbone not given here) GGGACAUGCGUAACUAUAUAGGGGCCUCCACAGCUGUAAAGCUUGGACUUAAACCAUAUAGAGUCCAGAUCGAGCA | ++ (proportion of ADAMTS5 binding amount (RU value) to the amount of aptamer immobilized on the SA chip (RU value) of not less than 40%) | 56.9 | – | 78.8 | –
22 (nucleic acid, aptamer; 2'-fluoro at CU, RNA at AG, backbone not given here) GGGACAUGCGUAACUGCAUAGGGGCCUCCACAGCUAUUCAGCUUGGACACAAACCAUGCAGUCCAGAUCGAGCA | ++ (proportion of ADAMTS5 binding amount (RU value) to the amount of aptamer immobilized on the SA chip (RU value) of not less than 40%) | 14.8 | – | – | –
23 (nucleic acid, aptamer; 2'-fluoro at CU, RNA at AG, backbone not given here) GGGACAUGCGUAACUGUAUAGGGGCCUCCACAGCUGAAAAGCUUGGACUCAAACCAUACAGUCCAGAUCGAGCA | ++ (proportion of ADAMTS5 binding amount (RU value) to the amount of aptamer immobilized on the SA chip (RU value) of not less than 40%) | 14.5 | – | – | –
24 (nucleic acid, aptamer; 2'-fluoro at CU, RNA at AG, backbone not given here) GGGACAUGCGUAACUUGAUAGGGGCCUCCACAGCCGGUAGGCUUGGACUCAAACCAUCAAGUCCAGAUCGAGCA | ++ (proportion of ADAMTS5 binding amount (RU value) to the amount of aptamer immobilized on the SA chip (RU value) of not less than 40%) | 20.2 | – | – | –
25 (nucleic acid, aptamer; 2'-fluoro at CU, RNA at AG, backbone not given here) GGGACAUGCGUAACUGCAUAGGGGCCUCCACAGCUAUUCAGCUUGGACACAAACCAUGCAGUCCAGAUCGAGCA | ++ (proportion of ADAMTS5 binding amount (RU value) to the amount of aptamer immobilized on the SA chip (RU value) of not less than 40%) | – | – | – | 72.1
16 (nucleic acid, aptamer; 2'-fluoro at CU, RNA at AG, backbone not given here) GGGACAUGCGUAACUUGAUAGGGGCCUCCGCAGCUGAUCAGCUCGGACUCAAACCAUCAAGUCCAGAUCGAGCA | + (proportion of less than 40%) | 46.3 | 93.6 | – | –
17 (nucleic acid, aptamer; 2'-fluoro at CU, RNA at AG, backbone not given here) GGGACAUGCGUAACUGUAUAGGGGCCUCCACAGCUGAAAAGCUUGGACUCAAACCAUACAGUCCAGAUCGAGCA | + (proportion of less than 40%) | 12.3 | 88.2 | – | –
18 (nucleic acid, aptamer; 2'-fluoro at CU, RNA at AG, backbone not given here) GGGACAUGCGUAACUGCAUCGGGGCCUCCGCAGCUGUUAAGCUCGGACUCAAACCAUGCAGUCCAGAUCGAGCA | + (proportion of less than 40%) | 2.9 | 90.4 | – | –
